In US20100015637A1 (AbbVie / Abbott, published 2010):
Each block holds one molecule with its values, some of them ahead of it.

Legend:
[1] = biological target: recombinant human PlGF-1 (comprising amino acids 1-131) expressed in E. coli (R&D Systems) (human) (UniProt P49763); test: … sandwich, capture MAb264, detection pAb264; antigen 250 pg/mL
[2] = biological target: CHO human PlGF-1 fragment (comprising amino acids 17-131; ATCC PTA-8540) (human) (UniProt P49763); test: as above
[3] = biological target: human PlGF-1 fragment (comprising amino acids 17-131) produced in human embryonic kidney cells (human) (UniProt P49763); test: as above
[4] = biological target: CHO human PlGF-1 comprising amino acids 1-137 (human PlGF-1-His (1-131), CHO 6305) (human) (UniProt P49763); test: as above
[5] = biological target: human PlGF-1 comprising amino acids 1-137 produced in human embryonic kidney cells (human) (UniProt P49763); test: as above
[6] = biological target: recombinant human PlGF-1 (comprising amino acids 1-131) expressed in E. coli (R&D Systems) (human) (UniProt P49763); test: … sandwich, capture MAb264, detection pAb264; antigen 750 pg/mL
[7] = biological target: CHO human PlGF-1 fragment (comprising amino acids 17-131; ATCC PTA-8540) (human) (UniProt P49763); test: as above
[8] = biological target: human PlGF-1 fragment (comprising amino acids 17-131) produced in human embryonic kidney cells (human) (UniProt P49763); test: as above
[9] = biological target: CHO human PlGF-1 comprising amino acids 1-137 (human PlGF-1-His (1-131), CHO 6305) (human) (UniProt P49763); test: as above
[10] = biological target: human PlGF-1 comprising amino acids 1-137 produced in human embryonic kidney cells (human) (UniProt P49763); test: as above
[11] = biological target: recombinant human PlGF-1 (comprising amino acids 1-131) expressed in E. coli (R&D Systems) (human) (UniProt P49763); test: … sandwich, capture MAb264, detection pAb264; antigen 0 pg/mL (blank)
[12] = biological target: CHO human PlGF-1 fragment (comprising amino acids 17-131; ATCC PTA-8540) (human) (UniProt P49763); test: as above
[13] = biological target: human PlGF-1 fragment (comprising amino acids 17-131) produced in human embryonic kidney cells (human) (UniProt P49763); test: as above
[14] = biological target: CHO human PlGF-1 comprising amino acids 1-137 (human PlGF-1-His (1-131), CHO 6305) (human) (UniProt P49763); test: as above
[15] = biological target: human PlGF-1 comprising amino acids 1-137 produced in human embryonic kidney cells (human) (UniProt P49763); test: as above
[16] = biological target: recombinant human PlGF-1 (comprising amino acids 1-131) expressed in E. coli (R&D Systems) (human) (UniProt P49763); test: … sandwich, capture MAb264, detection pAb264; antigen 1500 pg/mL
[17] = biological target: CHO human PlGF-1 fragment (comprising amino acids 17-131; ATCC PTA-8540) (human) (UniProt P49763); test: as above
[18] = biological target: human PlGF-1 fragment (comprising amino acids 17-131) produced in human embryonic kidney cells (human) (UniProt P49763); test: as above
[19] = biological target: CHO human PlGF-1 comprising amino acids 1-137 (human PlGF-1-His (1-131), CHO 6305) (human) (UniProt P49763); test: as above
[20] = biological target: human PlGF-1 comprising amino acids 1-137 produced in human embryonic kidney cells (human) (UniProt P49763); test: as above
[21] = biological target: recombinant human PlGF-1 (comprising amino acids 1-131) expressed in E. coli (R&D Systems) (human) (UniProt P49763); test: … sandwich, capture MAb264, detection pAb264; antigen 60 pg/mL
[22] = biological target: CHO human PlGF-1 fragment (comprising amino acids 17-131; ATCC PTA-8540) (human) (UniProt P49763); test: as above
[23] = biological target: human PlGF-1 fragment (comprising amino acids 17-131) produced in human embryonic kidney cells (human) (UniProt P49763); test: as above
[24] = biological target: CHO human PlGF-1 comprising amino acids 1-137 (human PlGF-1-His (1-131), CHO 6305) (human) (UniProt P49763); test: as above
[25] = biological target: human PlGF-1 comprising amino acids 1-137 produced in human embryonic kidney cells (human) (UniProt P49763); test: as above
[26] = biological target: recombinant human PlGF-1 (comprising amino acids 1-131) expressed in E. coli (R&D Systems) (human) (UniProt P49763); test: … sandwich, capture MAb264, detection pAb264; antigen 15 pg/mL
[27] = biological target: CHO human PlGF-1 fragment (comprising amino acids 17-131; ATCC PTA-8540) (human) (UniProt P49763); test: as above
[28] = biological target: human PlGF-1 fragment (comprising amino acids 17-131) produced in human embryonic kidney cells (human) (UniProt P49763); test: as above
[29] = biological target: CHO human PlGF-1 comprising amino acids 1-137 (human PlGF-1-His (1-131), CHO 6305) (human) (UniProt P49763); test: as above
[30] = biological target: human PlGF-1 comprising amino acids 1-137 produced in human embryonic kidney cells (human) (UniProt P49763); test: as above
[31] = biological target: T1, CHO human PlGF-1 comprising amino acids 1-137 (human PlGF-1-His (1-131), CHO 6305) (human, UniProt P49763 19-221, N-glycans at N21 (completely glycosylated) and N89 (partially glycosylated)); test: sandwich chemiluminescent EIA, 1-255-713 coated, acridinium 2-826-335 Fab'2 detection
T1 construct: Mature human PlGF-1 with 6xHis tag (137 amino acids); also called CHO (1-137)
T1 sequence: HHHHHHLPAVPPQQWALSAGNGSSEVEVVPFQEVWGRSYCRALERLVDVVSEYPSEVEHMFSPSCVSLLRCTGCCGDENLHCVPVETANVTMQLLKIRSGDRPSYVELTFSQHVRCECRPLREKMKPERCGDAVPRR
Experimental: After the capture reagent had been coated on the solid phase, it was removed and any unoccupied binding sites remaining on the plates were blocked using a 2% Fish Gel solution in PBS. The plates were washed and log 2 serial dilutions of recombinant antigen (rAg) lots, starting at 10,000 pg/mL in research phase […]® Human PlGF-1 calibrator diluent (which comprises a buffer containing MES, other salt, a protein blocker and an antimicrobial; Abbott Laboratories, Abbott Park, Ill.), were added to the plate for a one-hour incubation. Purified human PlGF-1 rAg (R&D Systems Minneapolis, Minn.) that was produced in E. coli was used as a positive control and purified NGAL) rAg was used as a negative control in this assay. […] Luminescence counts per second (LCPS) were measured on a Microbeta Jet instrument (Perkin Elmer, Waltham Mass.). The plate was loaded in the instrument where 100 μl of Architect Pre-trigger Solution (Abbott Laboratories, Abbott Park, Ill.) is added to each well, followed by 100 ul of Architect Trigger Solution is added before flash chemiluminescence is read and recorded. A calibration curve was generated with each rAg and recorded in the following graph.

- RLU [1]: 196000 RLU
- RLU [2]: 46000 RLU
- RLU [3]: 77900 RLU
- RLU [4]: 38900 RLU
- RLU [5]: 109000 RLU
- RLU [6]: 352000 RLU
- RLU [7]: 120000 RLU
- RLU [8]: 206000 RLU
- RLU [9]: 106000 RLU
- RLU [10]: 277000 RLU
- RLU [11]: 5110 RLU
- RLU [12]: 4680 RLU
- RLU [13]: 4880 RLU
- RLU [14]: 4650 RLU
- RLU [15]: 4750 RLU
- RLU [16]: 937000 RLU
- RLU [17]: 223000 RLU
- RLU [18]: 403000 RLU
- RLU [19]: 201000 RLU
- RLU [20]: 507000 RLU
- RLU [21]: 55000 RLU
- RLU [22]: 14800 RLU
- RLU [23]: 23500 RLU
- RLU [24]: 13800 RLU
- RLU [25]: 31300 RLU
- RLU [26]: 15600 RLU
- RLU [27]: 6870 RLU
- RLU [28]: 8590 RLU
- RLU [29]: 6370 RLU
- RLU [30]: 10400 RLU
Molecule: monoclonal antibody 264 (mouse anti-human PlGF-1, Clone 37203, R&D Systems Catalog Number MAB264)

- binding result [31]: binds
B1: acridinium labeled Fab'2 fragment of human PlGF-1 antibody 2-826-335 (other)
VH: QVQLKQSGPGLVQPSQSLSITCTVSGFSLTTYGIHWVRQSPGKGLEWLGVMWSGGDTDYDAAFISRLSISKDNSKSQVFFKMNSLQANDTGIYYCARYRFYGMDYWGQGTSVTVSS
VL: AIQMTQSSSSFSVSLGDRVTITCKASEDIYNRFAWYQQKPGNAPRLLISGAASLEAGVPSRFSGSGSGQDYTLSITSLQTEDVATYYCQQYWSTPWTFGGGTKLEIKR
modifications: acridinium labeled
